Measurements taken from patent publication US7018791B1, “Binding complexes” (Institute of Cancer Research: Royal Cancer Hospital, priority 1997, dated 2006).
* marks the point of attachment. Biotin = O=C1N[C@H]2[C@H](CS[C@H]2CCCCC(=O)*)N1

Key:
[1] = tested on: T1, CCT; test: Interaction of soluble biotinylated peptides with CCT (native PAGE, streptavidin/Neutravidin-HRP blot); type: binding, mouse
T1 construct: Take 20S mouse testis sucrose gradient fractions enriched in CCT; from tissue; host or cells: mouse testis, 20S sucrose gradient fractions

[2] = biological target: T2, human CCTγ subunit (human 293 cells) (human, UniProt P49368 1-545); test: superimposable bands, non-denaturing PAGE Western blot of sucrose fractions 13 and 14 of human 293 cells
T2 sequence (looked up): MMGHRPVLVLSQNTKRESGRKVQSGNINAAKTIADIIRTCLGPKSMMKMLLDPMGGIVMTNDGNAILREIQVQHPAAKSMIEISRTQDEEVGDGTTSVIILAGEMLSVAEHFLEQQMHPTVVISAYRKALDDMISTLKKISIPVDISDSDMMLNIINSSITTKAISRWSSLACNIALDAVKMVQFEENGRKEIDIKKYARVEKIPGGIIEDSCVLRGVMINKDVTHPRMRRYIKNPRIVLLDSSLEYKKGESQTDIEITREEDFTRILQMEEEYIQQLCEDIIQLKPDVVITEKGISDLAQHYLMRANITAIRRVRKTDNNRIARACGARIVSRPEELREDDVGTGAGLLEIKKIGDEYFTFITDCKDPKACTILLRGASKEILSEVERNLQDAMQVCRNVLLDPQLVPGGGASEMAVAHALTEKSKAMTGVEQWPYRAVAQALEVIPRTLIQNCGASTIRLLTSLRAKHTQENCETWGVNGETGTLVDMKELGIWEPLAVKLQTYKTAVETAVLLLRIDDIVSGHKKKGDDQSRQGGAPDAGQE

[3] = tested on: CCT; test: In vitro translation in rabbit reticulocyte lysate, interaction with CCT on native PAGE; type: binding; details: kinetics different from folding substrates actin or tubulins
Method: Time courses of interactions of cyclins with CCT were analysed on 6% native polyacrylamide gels (Liou & Willison,EMBO J. 16, 4311–4316, 1997). At the indicated times, 5 μl aliquots of the lysate reactions were added to 7 μl of […] EDTA (ph 8.0) and 4 μl of 4× gel loading buffer and placed on ice. The lanes 1–6 show CCT a at t=0, 5, 10, 20, 30, 60 minutes. Lanes 7–12 show pBSK CY1 1 (mouse D1) at t=0, 5, 10, 20, 30, 60 minutes.
Upon in vitro translation of actin mRNA in rabbit reticulocyte lysate, several truncated forms of ^35S-actin are captured by and accumulate on CCT. This is also the case for α-tubulin (Liou, K. F., et al, Biological Chem. Hoppe-Seler 379, 311–319, 1998). […] Thus, the actin is fragments are not ribosome released nascent chains, but are the consequence of initiation of translation at internal methionine residues in actin, and a comparison of the experimentally determined molecular weights of the truncated forms with the sequential occurrence of the methionines in mouse β-actin supports this interpretation. […] Therefore, no fragments smaller than 29 kDa are produced by internal initiation in the IVT reaction.
The present inventors made fusion proteins which linked β-Actin Site I (residues 31–70) or Site II residues 178–262; 6 of the peptides (Table 2) are located in this segment) containing fragments to the C-terminus of Ha-Ras (residues 1–166). […]

[4] = biological target: T3, mouse CCTα subunit (wildtype) (mouse, UniProt P11983 1-556); test: superimposable bands, 6% non-denaturing PAGE Western blot of mouse testis sucrose fractions 13 and 14, subunit-specific antibodies
T3 construct: in the 23C experiment translated in vitro and incorporated into rabbit CCT; also called CCTa; CCTA

[5] = biological target: T4, mouse CCTγ subunit (mouse, UniProt P80318 1-545); test: superimposable bands, 6% non-denaturing PAGE Western blot of sucrose fractions 13 and 14; footnote: not very clear in mouse testis but substantiated in Human 293 cells
T4 construct: Endogenous subunit in mouse testis sucrose fractions
T4 sequence (looked up): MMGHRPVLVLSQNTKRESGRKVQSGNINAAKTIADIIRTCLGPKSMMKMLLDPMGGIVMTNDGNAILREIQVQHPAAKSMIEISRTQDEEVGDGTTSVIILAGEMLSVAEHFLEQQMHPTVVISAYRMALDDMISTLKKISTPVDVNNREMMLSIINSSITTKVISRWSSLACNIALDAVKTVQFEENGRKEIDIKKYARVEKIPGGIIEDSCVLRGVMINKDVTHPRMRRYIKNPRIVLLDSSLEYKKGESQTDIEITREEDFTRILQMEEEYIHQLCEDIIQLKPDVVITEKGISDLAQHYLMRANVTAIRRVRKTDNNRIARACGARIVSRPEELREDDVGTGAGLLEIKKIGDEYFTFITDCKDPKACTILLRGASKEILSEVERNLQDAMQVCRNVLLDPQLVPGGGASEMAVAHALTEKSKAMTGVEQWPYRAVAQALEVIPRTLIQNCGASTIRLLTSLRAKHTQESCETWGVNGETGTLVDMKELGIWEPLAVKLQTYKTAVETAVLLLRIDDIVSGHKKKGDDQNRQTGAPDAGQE

[6] = biological target: T5, CCT (chaperonin containing TCP-1) complex from mouse testis (mouse, UniProt P11983 1-556; P80314 2-535; P80318 1-545; P80315 1-539; P80316 2-541; P80317 …); test: biotinylated peptide with CCT in solution, 6% native PAGE, blot probed with streptavidin/Neutravidin-HRP
T5 construct: Hetero-oligomer: eight different subunits in each of two rings (double toroid, about 920 kDa), enriched from mouse testis 20S sucrose gradient fractions; Testis also holds CCTζ2; also called CCT complex; intact CCT

biotin-SGSG-AAAAAQGVMVGMGQK [peptide 8.6]
effect of alanine substitution in GRPRH core sequence on binding to CCT ([1]; free solution assay, derivatives of peptide 8): abrogation of binding to CCT

biotin-SGSG-GRPRHQGVMVGMGQK [peptide 8]
binding of peptide to CCT in free solution (co-migration with CCT complex) ([1]; biotinylated peptide, non denaturing gel): co-migrate with the CCT complex

B1: human CCTβ subunit (human 293 cells) (other, UniProt P78371 2-535, looked up)
chain: ASLSLAPVNIFKAGADEERAETARLTSFIGAIAIGDLVKSTLGPKGMDKILLSSGRDASLMVTNDGATILKNIGVDNPAAKVLVDMSRVQDDEVGDGTTSVTVLAAELLREAESLIAKKIHPQTIIAGWREATKAAREALLSSAVDHGSDEVKFRQDLMNIAGTTLSSKLLTHHKDHFTKLAVEAVLRLKGSGNLEAIHIIKKLGGSLADSYLDEGFLLDKKIGVNQPKRIENAKILIANTGMDTDKIKIFGSRVRVDSTAKVAEIEHAEKEKMKEKVERILKHGINCFINRQLIYNYPEQLFGAAGVMAIEHADFAGVERLALVTGGEIASTFDHPELVKLGSCKLIEEVMIGEDKLIHFSGVALGEACTIVLRGATQQILDEAERSLHDALCVLAQTVKDSRTVYGGGCSEMLMAHAVTQLANRTPGKEAVAMESYAKALRMLPTIIADNAGYDSADLVAQLRAAHSEGNTTAGLDMREGTIGDMAILGITESFQVKRQVLLSAAEAAEVILRVDNIIKAAPRKRVPDHHPC
binding result [2]: binds

B2: Cyclin D2: cyclin D2, CCT binding partner (protein, UniProt P30279 1-289, looked up)
G1/S-specific cyclin-D2: MELLCHEVDPVRRAVRDRNLLRDDRVLQNLLTIEERYLPQCSYFKCVQKDIQPYMRRMVATWMLEVCEEQKCEEEVFPLAMNYLDRFLAGVPTPKSHLQLLGAVCMFLASKLKETSPLTAEKLCIYTDNSIKPQELLEWELVVLGKLKWNLAAVTPHDFIEHILRKLPQQREKLSLIRKHAQTFIALCATDFKFAMYPPSMIATGSVGAAICGLQQDEEVSSLTCDALTELLAKITNTDVDCLKACQEQIEAVLLNSLQQYRQDQRDGSKSEDELDQASTPTDVRDIDL
binding to CCT (binding partner) [3]: specific binding partners for CCT

B3: mouse CCTη subunit (other, UniProt P80313 1-544, looked up)
chain: MMPTPVILLKEGTDSSQGIPQLVSNISACQVIAEAVRTTLGPRGMDKLIVDGRGKATISNDGATILKLLDVVHPAAKTLVDIAKSQDAEVGDGTTSVTLLAAEFLKQVKPYVEEGLHPQIIIRAFRTATQLAVNKIKEIAVTVKKQDKVEQRKMLEKCAMTALSSKLISQQKVFFAKMVVDAVMMLDELLQLKMIGIKKVQGGALEESQLVAGVAFKKTFSYAGFEMQPKKYKNPKIALLNVELELKAEKDNAEIRVHTVEDYQAIVDAEWNILYDKLEKIHQSGAKVILSKLPIGDVATQYFADRDMFCAGRVPEEDLKRTMMACGGSIQTSVNALVPDVLGHCQVFEETQIGGERYNFFTGCPKAKTCTIILRGGAEQFMEETERSLHDAIMIVRRAIKNDSVVAGGGAIEMELSKYLRDYSRTIPGKQQLLIGAYAKALEIIPRQLCDNAGFDATNILNKLRARHAQGGMWYGVDINNENIADNFQAFVWEPAMVRINALTAASEAACLIVSVDETIKNPRSTVDPPAPSAGRGRGQARFH
notes: Endogenous subunit in mouse testis sucrose fractions
binding result [4]: binds

B4: mouse CCTε subunit (other, UniProt P80316 2-541, looked up)
chain: ASVGTLAFDEYGRPFLIIKDQDRKSRLMGLEALKSHIMAAKAVANTMRTSLGPNGLDKMMVDKDGDVTITNDGATILSMMDVDHQIAKLMVELSKSQDDEIGDGTTGVVVLAGALLEEAEQLLDRGIHPIRIADGYEQAARIAIQHLDKISDKVLVDINNPEPLIQTAKTTLGSKVINSCHRQMAEIAVNAVLTVADMERRDVDFELIKVEGKVGGRLEDTKLIKGVIVDKDFSHPQMPKKVVDAKIAILTCPFEPPKPKTKHKLDVMSVEDYKALQKYEKEKFEEMIKQIKETGANLAICQWGFDDEANHLLLQNGLPAVRWVGGPEIELIAIATGGRIVPRFSELTSEKLGFAGVVQEISFGTTKDKMLVIEKCKNSRAVTIFIRGGNKMIIEEAKRSLHDALCVIRNLIRDNRVVYGGGAAEISCALAVSQEADKCPTLEQYAMRAFADALEVIPMALSENSGMNPIQTMTEVRARQVKESNPALGIDCLHKGSNDMQYQHVIETLIGKKQQISLATQMVRMILKIDDIRKPGESEE
notes: as for B3
binding result [4]: binds

B5: Cyclin D1: mouse cyclin D1 translated in rabbit reticulocyte lysate (protein)
chain: MEHQLLCCEVETIRRAYPDTNLLNDRVLRAMLKTEETCAPSVSYFKCVQKEIVPSMRKIVATWMLEVCEEQKCEEEVFPLAMNYLDRFLSLEPLKKSRLQLLGATCMFVASKMKETIPLTAEKLCIYTDNSIRPEELLQMELLLVNKLKWNLAAMTPHDFIEHFLSKMPEADENKQTIRKHAQTFVALCATDVKFISNPPSMVAAGSVVAAMQGLNLGSPNNFLSCYRTTHFLSRVIKCDPDCLRACQEQIEALLESSLRQAQQNVDPKATEEEGEVEEEAGLACTPTDVRDVDI
binding to CCT (binding partner) [3]: specific binding partners for CCT

B6: mouse CCTβ subunit (other, UniProt P80314 2-535, looked up)
chain: ASLSLAPVNIFKAGADEERAETARLSSFIGAIAIGDLVKSTLGPKGMDKILLSSGRDAALMVTNDGATILKNIGVDNPAAKVLVDMSRVQDDEVGDGTTSVTVLAAELLREAESLIAKKIHPQTIISGWREATKAAREALLSSAVDHGSDEARFWQDLMNIAGTTLSSKLLTHHKDHFTKLAVEAVLRLKGSGNLEAIHVIKKLGGSLADSYLDEGFLLDKKIGVNQPKRIENAKILIANTGMDTDKIKIFGSRVRVDSTAKVAEIEHAEKEKMKEKVERILKHGINCFINRQLIYNYPEQLFGAAGVMAIEHADFAGVERLALVTGGEIASTFDHPELVKLGSCKLIEEVMIGEDKLIHFSGVALGEACTIVLRGATQQILDEAERSLHDALCVLAQTVKDPRTVYGGGCSEMLMAHAVTQLANRTPGKEAVAMESFAKALRMLPTIIADNAGYDSADLVAQLRAAHSEGHITAGLDMKEGTIGDMAVLGITESFQVKRQVLLSAAEAAEVILRVDNIIKAAPRKRVPDHHPC
notes: as for B3
binding result [5]: binds

B7: peptide 8.6, biotin-SGSG-AAAAAQGVMVGMGQK (peptide)
peptide: Biotin-SGSGAAAAAQGVMVGMGQK-NH2
SMILES: CSCC[C@H](NC(=O)CNC(=O)[C@@H](NC(=O)[C@H](CCSC)NC(=O)[C@@H](NC(=O)CNC(=O)[C@H](CCC(N)=O)NC(=O)[C@H](C)NC(=O)[C@H](C)NC(=O)[C@H](C)NC(=O)[C@H](C)NC(=O)[C@H](C)NC(=O)CNC(=O)[C@H](CO)NC(=O)CNC(=O)[C@H](CO)NC(=O)CCCC[C@@H]1SC[C@@H]2NC(=O)N[C@@H]21)C(C)C)C(C)C)C(=O)NCC(=O)N[C@@H](CCC(N)=O)C(=O)N[C@@H](CCCCN)C(N)=O
notes: All five core residues replaced by alanine
binding result [6]: no binding (tested: peptide 13.3 µM or 1.33 µM, CCT 70 nM)
